Test results taken from FireProtDB (doi:10.1021/bi00236a021).
Values joined by “and” are separate entries in the source; they are usually repeats but may differ in a detail not shown here. Equal entries are not always repeated.

Conditions: Escherichia coli (strain K12), whole UniProt chain shown
[1] = pH 7, Thermal, CD, Potassium phosphate 10 mM
[2] = pH 8, 30 °C, GdnHCl, Fluorescence, Tris-HCl 50 mM

B1: Glutaredoxin 1 wild type, P68688 (protein)
chain: MQTVIFGRSGCPYCVRAKDLAEKLSNERDDFQYQYVDIRAEGITKEDLQQKAGKPVETVPQIFVDQQHIGGYTDFAAWVKENLDA
unfolding free energy (pH 7, 25 °C, Thermal, CD, Potassium phosphate 10 mM): 4.7 kcal/mol
unfolding free energy (pH 7, 30 °C, Thermal, CD, Potassium phosphate 10 mM): 4.1 kcal/mol and 5 kcal/mol
Tm [1]: 55 °C and 57 °C
unfolding enthalpy (van 't Hoff) [1]: 67 kcal/mol and 75 kcal/mol
denaturant midpoint (higher = more stable) [2]: 2 M
unfolding free energy [2]: 4.2 kcal/mol and 6.1 kcal/mol
